# According to the supplement of paper PMC7877785:
# ± gives the uncertainty stated by the source.
# Experiment: self-splicing fitness, log relative to wild type (ln ratio); higher = more splicing; Tetrahymena group I intron in knt gene, E. coli kanamycin selection, DiMSum; sequences stand for … in CUCUCU…GGAGGGAAAAGUUAUCAGGCAUGCACCUGGUAGCUAGUCUUUAAACCAAUAGAUUGCAUCGGUUUAAAAGGCAAGACCGUCAAAUUGCGGGAAAGGGGUCAACAGCCGUUCAGUACCAAGUCUCAGGGGAAACUUUGAGAUGGCCUUGCAAAGGGUAUGGUAAUAAGCUGACGGACAUGGUCCUAACCACGCAGCCAAGUCCUAAGUCAACAGAUCUUCUGUUGAUAUGGAUGCAGUUCACAGACUAAAUGUCGGUCGGGGAAGAUGUAUUCUUCUCAUAAGAUAUAGUCGGACCUCUCCUUAAUGGGAGCUAGCGGAUGAAGUGAUGCAACACUGGAGCCGCUGGGAACUAAUUUGUAUGCGAAAGUAUAUUGAUUAGUUUUGGAGUACUCGUGGUCG
# Summary of the method: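 A randomised library covering all eight P1ex-region intron nucleotides was built with the intron in the knt kanamycin-resistance gene on pET-22b(+) and held in E. coli BL21(DE3). Cells were grown overnight at 37°C or 30°C on LB agar, with or without 25 μg/mL kanamycin, plus 100 μg/mL carbenicillin, 50 μM IPTG and 0.2% rhamnose, and pooled colonies were amplicon-sequenced on an Illumina HiSeq 2500. DiMSum fitness is the error-weighted combination of wild-type-normalised replicate fold changes, kanamycin versus none.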
Sequence,self-splicing fitness (ln) (30 °C),self-splicing fitness (ln) (37 °C)
CUGUAGCAAUAUUACGCGAC,-2.56 ± 0.2,-2.41 ± 0.28
CUGUAGCAAUAUUACGCUGC,-3.17 ± 0.3,–
CUGUAGCAAUAUUACGGAAU,-2.18 ± 0.13,-3.57 ± 0.32
CUGUAGCAAUAUUACGGACG,-1.53 ± 0.12,-0.319 ± 0.15
CUGUAGCAAUAUUACGGGAU,-3.16 ± 0.26,-2.28 ± 0.23
CUGUAGCAAUAUUACGGGUA,-1.96 ± 0.35,–
CUGUAGCAAUAUUACGGUAU,-2.41 ± 0.15,-2.08 ± 0.18
CUGUAGCAAUAUUACGGUCC,-2.27 ± 0.25,-2.71 ± 0.44
CUGUAGCAAUAUUACGGUGA,-3.22 ± 0.22,-2.28 ± 0.24
CUGUAGCAAUAUUACGUAGG,-1.03 ± 0.075,-0.77 ± 0.12
CUGUAGCAAUAUUACGUCUA,–,-1.78 ± 0.39
CUGUAGCAAUAUUACGUGAG,-1.31 ± 0.072,-0.935 ± 0.096
CUGUAGCAAUAUUACGUGGA,-3.85 ± 0.28,-4.32 ± 0.42
CUGUAGCAAUAUUACGUGGC,–,0.0373 ± 0.2
CUUAAGCAAUAUUACGAAAG,-2.9 ± 0.22,-1.75 ± 0.18
CUUAAGCAAUAUUACGAACC,–,-0.593 ± 0.37
CUUAAGCAAUAUUACGAGAC,–,-3.26 ± 0.43
CUUAAGCAAUAUUACGCAGC,-3.43 ± 0.25,-1.93 ± 0.37
CUUAAGCAAUAUUACGCAUC,–,-0.617 ± 0.29
CUUAAGCAAUAUUACGCCCA,-2.46 ± 0.32,-1.69 ± 0.48
CUUAAGCAAUAUUACGCCUC,-1.85 ± 0.22,–
CUUAAGCAAUAUUACGCGAC,-1.83 ± 0.16,-0.508 ± 0.23
CUUAAGCAAUAUUACGCGCG,-1.54 ± 0.12,-0.513 ± 0.17

Sequence,self-splicing fitness (ln) (30 °C),self-splicing fitness (ln) (37 °C)
CUUAAGCAAUAUUACGCGUA,-2.75 ± 0.34,-3.23 ± 0.29
CUUAAGCAAUAUUACGCGUU,-4.44 ± 0.23,-3.85 ± 0.25
CUUAAGCAAUAUUACGGAGU,-2.92 ± 0.099,-2.31 ± 0.12
CUUAAGCAAUAUUACGGGUA,-2.7 ± 0.22,-2.75 ± 0.38
CUUAAGCAAUAUUACGGUUG,-1.95 ± 0.14,-1.3 ± 0.14
CUUAAGCAAUAUUACGUAAA,-3.93 ± 0.27,-2.88 ± 0.36
CUUAAGCAAUAUUACGUACU,-2.82 ± 0.16,-2.67 ± 0.23
CUUAAGCAAUAUUACGUAUC,–,-2.98 ± 0.33
CUUAAGCAAUAUUACGUCAG,-0.948 ± 0.084,-0.564 ± 0.1
CUUAAGCAAUAUUACGUCCU,-3.41 ± 0.21,-2.43 ± 0.19
CUUAAGCAAUAUUACGUCGC,–,-1.65 ± 0.33
CUUAAGCAAUAUUACGUCUC,-3.75 ± 0.33,-2.11 ± 0.27
CUUAAGCAAUAUUACGUCUU,-3.64 ± 0.24,-3.11 ± 0.25
CUUAAGCAAUAUUACGUUAU,-3.09 ± 0.14,-2.51 ± 0.2
CUUAAGCAAUAUUACGUUGU,-3.89 ± 0.2,-1.64 ± 0.15
CUUCAGCAAUAUUACGAAAA,-2.29 ± 0.2,-3.03 ± 0.35
CUUCAGCAAUAUUACGACCU,-2.42 ± 0.21,-1.7 ± 0.27
CUUCAGCAAUAUUACGAGCC,-2.29 ± 0.21,-1.59 ± 0.3
CUUCAGCAAUAUUACGAGGC,-4.72 ± 0.41,-1.59 ± 0.4
CUUCAGCAAUAUUACGCACG,-1.02 ± 0.085,-0.456 ± 0.13
CUUCAGCAAUAUUACGCGUA,-2.92 ± 0.18,-2.46 ± 0.17
CUUCAGCAAUAUUACGCUAG,-3.22 ± 0.26,-1.34 ± 0.19
